Reference: patent US5414076
“And” between values parts separate entries of the source, which are not always exact repeats. Equal values may be shown once.

Molecular target: human GALV receptor protein (gibbon ape leukemia virus receptor) (human)

gibbon ape leukemia virus
Foci/3 × 10^4 Cells (PG4 indicator cells) after exposure to GALV (foci/3 × 10^4 cells): 382 and 1000
